Laboratory results taken from US20230074436A1 (DENALI THERAPEUTICS, published 2023).
No end group written: not given here. *: point of attachment. Biotin = O=C1N[C@H]2[C@H](CS[C@H]2CCCCC(=O)*)N1

Key:
[1] = target: T1, human alpha-synuclein monomer (human, UniProt P37840 1-140); assay: ELISA, coated human alpha-synuclein
asyn_113-127_115A [2] = target: T2, asyn_113-127_115A (human); assay: Ala-scan peptide ELISA, row E, run 1
T2 construct: substitution is already in the entry; also called pep4
T2 peptide: Biotin-LEAMPVDPDNEAYEM
Description: (§1) 96-well Nunc plates were coated with 50 μL per well of 1 μg/mL streptavidin (from Jackson Immuno Research Laboratory) in PBS at 4° C. overnight. The plates were washed three times with PBST, and blocked with PBS containing 3% BSA at room temperature for 1 hour. The N-terminal biotinylated peptides were dissolved in Milli Q water to a concentration of 2 mg/mL, then further diluted to a concentration of 2 μg/mL with PBS. 50 μl of the diluted peptide was applied to the streptavidin-coated plates and incubated at 4° C. overnight. 2 μg/mL of biotinylated human alpha-synuclein was used as the positive control. The plates were washed three times with PBST before use. Purified antibody was diluted by serial dilution methods, from 20 μg/mL to 1 ng/mL, and 50 μL of the antibody solution was added to the peptide-coated wells. The plates were incubated for 1 hour at room temperature, then washed three times with PBST. Secondary detection antibody (goat anti-rat HRP (obtained from Southern Biotech)) was added with 1:5,000 dilutions and incubated for 1 hour at room temperature, then washed three times with PBST. Plates were developed with 50 μL/well of TMB substrate (Thermo Fisher) and quenched with 50 μL/well of 1 N sulfuric acid. The signal was quantified on a BioTek® plate reader at A450. A parallel repeat was performed for each peptide in a separate plate.

asyn_113-127_119A [3] = target: T3, asyn_113-127_119A (human); assay: Ala-scan peptide ELISA, row E, run 1
T3 construct: substitution is already in the entry; also called pep8
T3 peptide: Biotin-LEDMPVAPDNEAYEM
Description: as §1

asyn_113-127_120A [4] = target: T4, asyn_113-127_120A (human); assay: Ala-scan peptide ELISA, row E, run 1
T4 construct: substitution is already in the entry; also called pep9
T4 peptide: Biotin-LEDMPVDADNEAYEM
Description: as §1

asyn_113-127_124P [5] = target: T5, asyn_113-127_124P (human); assay: Ala-scan peptide ELISA, row E, run 1
T5 construct: substitution is already in the entry; also called pep14
T5 peptide: Biotin-LEDMPVDPDNEPYEM
Description: as §1

asyn_113-127_125A [6] = target: T6, asyn_113-127_125A (human); assay: Ala-scan peptide ELISA, row E, run 1
T6 construct: substitution is already in the entry; also called pep15
T6 peptide: Biotin-LEDMPVDPDNEAAEM
Description: as §1

asyn_113-127_126A [7] = target: T7, asyn_113-127_126A (human); assay: Ala-scan peptide ELISA, row E, run 1
T7 construct: substitution is already in the entry; also called pep16
T7 peptide: Biotin-LEDMPVDPDNEAYAM
Description: as §1

[8] = target: T8, biotinylated human alpha-synuclein (human, UniProt P37840 1-140); assay: Ala-scan peptide ELISA, row E, run 1
Description: as §1

asyn_113-127_115A [9] = target: T2, asyn_113-127_115A; assay: Ala-scan peptide ELISA, row F, run 1
Description: as §1

asyn_113-127_116A [10] = target: T9, asyn_113-127_116A (human); assay: Ala-scan peptide ELISA, row F, run 1
T9 construct: substitution is already in the entry; also called pep5
T9 peptide: Biotin-LEDAPVDPDNEAYEM
Description: as §1

asyn_113-127_117A [11] = target: T10, asyn_113-127_117A (human); assay: Ala-scan peptide ELISA, row F, run 1
T10 construct: substitution is already in the entry; also called pep6
T10 peptide: Biotin-LEDMAVDPDNEAYEM
Description: as §1

asyn_113-127_121A [12] = target: T11, asyn_113-127_121A (human); assay: Ala-scan peptide ELISA, row F, run 1
T11 construct: substitution is already in the entry; also called pep10
T11 peptide: Biotin-LEDMPVDPANEAYEM
Description: as §1

asyn_113-127_122A [13] = target: T12, asyn_113-127_122A (human); assay: Ala-scan peptide ELISA, row F, run 1
T12 construct: substitution is already in the entry; also called pep11
T12 peptide: Biotin-LEDMPVDPDAEAYEM
Description: as §1

asyn_113-127_125A [14] = target: T6, asyn_113-127_125A; assay: Ala-scan peptide ELISA, row F, run 1
Description: as §1

asyn_113-127_126A [15] = target: T7, asyn_113-127_126A; assay: Ala-scan peptide ELISA, row F, run 1
Description: as §1

asyn_113-127_127A [16] = target: T13, asyn_113-127_127A (human); assay: Ala-scan peptide ELISA, row F, run 1
T13 construct: substitution is already in the entry; also called pep17
T13 peptide: Biotin-LEDMPVDPDNEAYEA
Description: as §1

asyn_113-127 = target: T14, asyn_113-127 (human); assay: Ala-scan peptide ELISA, row G, run 1
T14 construct: also called pep1
T14 peptide: Biotin-LEDMPVDPDNEAYEM
Description: as §1

asyn_113-127_113A = target: T15, asyn_113-127_113A (human); assay: Ala-scan peptide ELISA, row G, run 1
T15 construct: substitution is already in the entry; also called pep2
T15 peptide: Biotin-AEDMPVDPDNEAYEM
Description: as §1

asyn_113-127_114A = target: T16, asyn_113-127_114A (human); assay: Ala-scan peptide ELISA, row G, run 1
T16 construct: substitution is already in the entry; also called pep3
T16 peptide: Biotin-LADMPVDPDNEAYEM
Description: as §1

asyn_113-127_115A [17] = target: T2, asyn_113-127_115A; assay: Ala-scan peptide ELISA, row G, run 1
Description: as §1

asyn_113-127_116A [18] = target: T9, asyn_113-127_116A; assay: Ala-scan peptide ELISA, row G, run 1
Description: as §1

asyn_113-127_117A [19] = target: T10, asyn_113-127_117A; assay: Ala-scan peptide ELISA, row G, run 1
Description: as §1

asyn_113-127_118A = target: T17, asyn_113-127_118A (human); assay: Ala-scan peptide ELISA, row G, run 1
T17 construct: substitution is already in the entry; also called pep7
T17 peptide: Biotin-LEDMPADPDNEAYEM
Description: as §1

asyn_113-127_119A [20] = target: T3, asyn_113-127_119A; assay: Ala-scan peptide ELISA, row G, run 1
Description: as §1

asyn_113-127_120A [21] = target: T4, asyn_113-127_120A; assay: Ala-scan peptide ELISA, row G, run 1
Description: as §1

asyn_113-127_121A [22] = target: T11, asyn_113-127_121A; assay: Ala-scan peptide ELISA, row G, run 1
Description: as §1

asyn_113-127_122A [23] = target: T12, asyn_113-127_122A; assay: Ala-scan peptide ELISA, row G, run 1
Description: as §1

asyn_113-127_123A = target: T18, asyn_113-127_123A (human); assay: Ala-scan peptide ELISA, row G, run 1
T18 construct: substitution is already in the entry; also called pep12
T18 peptide: Biotin-LEDMPVDPDNAAYEM
Description: as §1

asyn_113-127_124G = target: T19, asyn_113-127_124G (human); assay: Ala-scan peptide ELISA, row G, run 1
T19 construct: substitution is already in the entry; also called pep13
T19 peptide: Biotin-LEDMPVDPDNEGYEM
Description: as §1

asyn_113-127_124P [24] = target: T5, asyn_113-127_124P; assay: Ala-scan peptide ELISA, row G, run 1
Description: as §1

asyn_113-127_125A [25] = target: T6, asyn_113-127_125A; assay: Ala-scan peptide ELISA, row G, run 1
Description: as §1

asyn_113-127_126A [26] = target: T7, asyn_113-127_126A; assay: Ala-scan peptide ELISA, row G, run 1
Description: as §1

asyn_113-127_127A [27] = target: T13, asyn_113-127_127A; assay: Ala-scan peptide ELISA, row G, run 1
Description: as §1

[28] = target: T8, biotinylated human alpha-synuclein; assay: Ala-scan peptide ELISA, row G, run 1
Description: as §1

[29] = target: T1, human alpha-synuclein monomer; assay: direct ELISA, plate coated with 1 µg/mL recombinant human alpha-synuclein, antibody titrated, anti-rat HRP, A450
Description: 96-well Nunc plates were coated with 50 μL of recombinant human, mouse, or rat alpha-synuclein at a concentration of 1 μg/mL in PBS at 4° C. overnight. The plates were then washed three times with PBST and blocked with PBS containing 3% BSA at room temperature for 1 hour. Purified antibody was diluted by serial dilution methods, from 10 μg/mL to 0.6 ng/mL, and 50 μL of the antibody solution was added to the alpha-synuclein-coated wells. The plates were incubated for 1 hour at room temperature, then washed three times with PBST. Secondary detection antibody (goat anti-rat HRP (obtained from Southern Biotech)) was added 50 μL/well, 1:5,000 diluted in BSA-PBS solution. Plates were incubated for 1 hour at room temperature, then washed three times with PBST. Plates were subsequently developed with 50 μL/well of TMB substrate (Thermo Fisher) and quenched with 50 μL/well of 1 N sulfuric acid. The signal was quantified on a BioTek® plate reader at A450.

B1: 20H4 (antibody, rat IgG2b, V domains shown)
VH: AVQLVESGGGLVQPKESLKISCAASGFTFSNAAMYWVRQAPGKGLELLARIRTKPNNYATYHADSVKGRFTISRDDSQSMVYLHMGNLKTEDTAMYYCTADMATGDYWGPGVMVTVSS
VL: DIQMTQSPPVLSVSVGDRVTLSCKASQNINKNLDWYQQKHGEAPKPLIYSTNNLQTGVPSRFSGSGSGTDYTLTISSLQPEDVATYYCYQYKSAWTFGGGTKLELR
notes: also called clone 20H4; rat 20H4
Which results are given for B1?
antibody concentration at which ELISA is positive [1]: < 40 ng/mL; A450 (asyn_113-127_115A [2]): 0.183 OD; A450 (asyn_113-127_119A [3]): 0.05 OD; A450 (asyn_113-127_120A [4]): 0.2 OD; A450 (asyn_113-127_124P [5]): 0.044 OD; A450 (asyn_113-127_125A [6]): 0.045 OD; A450 (asyn_113-127_126A [7]): 0.235 OD; A450 [8]: 0.383 OD; A450 (asyn_113-127_115A [9]): 0.089 OD; A450 (asyn_113-127_116A [10]): 0.172 OD; A450 (asyn_113-127_117A [11]): 0.174 OD; A450 (asyn_113-127_121A [12]): 0.153 OD; A450 (asyn_113-127_122A [13]): 0.05 OD; A450 (asyn_113-127_125A [14]): 0.044 OD; A450 (asyn_113-127_126A [15]): 0.149 OD; A450 (asyn_113-127_127A [16]): 0.144 OD; A450 (asyn_113-127): 0.089 OD; A450 (asyn_113-127_113A): 0.095 OD; A450 (asyn_113-127_114A): 0.083 OD; A450 (asyn_113-127_115A [17]): 0.058 OD; A450 (asyn_113-127_116A [18]): 0.098 OD; A450 (asyn_113-127_117A [19]): 0.102 OD; A450 (asyn_113-127_118A): 0.107 OD; A450 (asyn_113-127_119A [20]): 0.048 OD; A450 (asyn_113-127_120A [21]): 0.08 OD; A450 (asyn_113-127_121A [22]): 0.091 OD; A450 (asyn_113-127_122A [23]): 0.049 OD; A450 (asyn_113-127_123A): 0.093 OD; A450 (asyn_113-127_124G): 0.099 OD; A450 (asyn_113-127_124P [24]): 0.044 OD; A450 (asyn_113-127_125A [25]): 0.046 OD; A450 (asyn_113-127_126A [26]): 0.098 OD; A450 (asyn_113-127_127A [27]): 0.094 OD; A450 [28]: 0.141 OD; EC50 (read off the curve) [29]: ~0.2 µg/mL
